Legend:
[1] = test system: OmpR-6His (Dickeya dadantii 3937 (EC3937)); test: EMSA; settings: 10 mM Tris pH 7.5, 50 mM NaCl, 0.5 mM DTT, 1 mM MgCl2, 2.5% glycerol; 20 min at room temperature; 50 ng DNA in 20 ul; 6% acrylamide-TBE gel
[2] = test system: RcsB-6His (Dickeya dadantii 3937 (EC3937)?); test: EMSA; settings: 10 mM Tris pH 7.5, 50 mM NaCl, 0.5 mM DTT, 1 mM MgCl2, 2.5% glycerol; 20 min at room temperature; 50 ng DNA in 20 ul; 6% acrylamide-TBE gel

Substance opgC promoter region has a binding [1] of 500 ng and a binding [2] of 300 ng.

— paper PMC4726272
